Source: publication PMC8963248, “Natural Human Immunity Against Staphylococcal Protein A Relies on Effector Functions Triggered by IgG3” (Frontiers in Immunology, 2022)

B1: anti-SpA monoclonal antibody mAb-1 in IgG3 scaffold (antibody, V domains shown)
VH: EVQLVESGGGLVQPGGSLRLSCAASGFTFSTYGMSWVRQAPGKGLEWVSSITGSGRSTFYADSVKGRFTISRDNSTNTLSLQMNSLRAEDTAVYYCARSPADIVTGYYPWWFDLWGQGTLVTVSS
VL: DIQMTQSPSSLSASIGDRVTITCRASQSINTYLNWYQQKPGKAPRLLIAGASSLQSGVPSRFSGSGSGTDFTLTISSLQPEDFATYYCQQANSFPLTFGQGTRLEIK
notes: heavy variable region; human IgG3 scaffold (heavy constant region); light chain; IgG3; also called IgG3 mAb-1; source: Expi293, transient transfection, purified (protein G)
B2: anti-SpA monoclonal antibody mAb-2 in IgG3 scaffold (antibody, V domains shown)
VH: QVQLVQSGAEVKKPGASVKVSCKASGYTFTRYYMHWVRQAPGQGLEWMGWINPPSGGTNYAQKFQGRVTMTRDTSTSTVYMELSSLRSEDTAVYYCARDPPMGQGMDVWGQGTLVTVSS
VL: EIVLTQSPATLSVSPGERATLSCRASQSISSYLNWYQQKPGQAPRLLIYAASSLQSGIPARFSGSGSGTEFTLTISSLQSEDFAVYYCQQSFVAPFTFGGGTKVEIK
notes: heavy variable region; human IgG3 scaffold (heavy constant region); light chain; IgG3; also called IgG3 mAb-2; source: Expi293, transient transfection, purified (protein G)
B3: anti-SpA monoclonal antibody mAb-3 in IgG3 scaffold (antibody, V domains shown)
VH: QVQLVQSGAEVKKPGASVKVSCKASGYTFSHYYMHWVRQAPGQGLEWMGIINPRYGSTSYAQKFQGRVTMTRDTSTSTVYMELSSLRSEDTAVYYCARDGEVGARDLGWFDPWGQGTLVTVSS
VL: EIVLTQSPATLSVSPGERATLSCRASQSVSSNLAWYQQKPGQAPRLLIYGASTRATGIPARFSGSGSGTEFTLTISSLQSEDFAVYYCQQYTPLPWTFGGGTKVEIK
notes: heavy variable region; human IgG3 scaffold (heavy constant region); light chain; IgG3; also called IgG3 mAb-3; source: Expi293, transient transfection, purified (protein G)

Target: T1, SpA wild type (Staphylococcal protein A, recombinant) (Staphylococcus aureus NCTC 8325, UniProt P02976, biotinylated (only for the beads of the phagocytosis assays); chemically coupled by amines to MagPlex beads in the Luminex assays)
T1 construct: Staphylococcal protein A (SpA) of S. aureus strain NCTC 8325, locus tag SAOUHSC_00069; In the functional rows on bacteria the SpA is that on S. aureus USA300 lac, not this recombinant protein; also called SpAwt
Assay: Luminex bead displacement assay; SpAwt coupled to MagPlex beads, saturated with biotinylated human IgGs (8 µg/mL, 30 min, room temperature), washed, then incubated with serially diluted IgG3 mAbs 1-4 or IgG3 isotype control in PBS; remaining human IgGs revealed with streptavidin-PE
Settings: both partners purified

T1 sequence (P02976 37-485): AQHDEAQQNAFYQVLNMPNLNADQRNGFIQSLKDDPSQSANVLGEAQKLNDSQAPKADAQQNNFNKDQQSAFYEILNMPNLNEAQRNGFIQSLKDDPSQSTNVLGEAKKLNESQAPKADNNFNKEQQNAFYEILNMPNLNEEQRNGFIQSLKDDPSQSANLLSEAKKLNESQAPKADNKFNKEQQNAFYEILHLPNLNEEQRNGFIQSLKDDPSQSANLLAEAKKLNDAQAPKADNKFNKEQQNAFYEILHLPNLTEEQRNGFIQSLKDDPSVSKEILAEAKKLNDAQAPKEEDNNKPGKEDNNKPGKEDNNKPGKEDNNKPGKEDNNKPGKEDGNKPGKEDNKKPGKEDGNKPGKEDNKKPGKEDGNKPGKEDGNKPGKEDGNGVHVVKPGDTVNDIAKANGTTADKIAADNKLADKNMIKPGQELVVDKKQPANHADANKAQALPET

Binder	binding result
B1	binds
B2	binds
B3	binds
